Values quoted from earlier work as cited in US7186797B2, “Polypeptide conjugates with extended circulating half-lives” (Epix Pharmaceuticals, Inc., priority 2001, dated 2007).

B1: granulocyte colony stimulating factor: commercially important polypeptide-based drug currently in use (protein, UniProt P09919 31-207, looked up)
Granulocyte …: TPLGPASSLPQSFLLKCLEQVRKIQGDGAALQEKLVSECATYKLCHPEELVLLGHSLGIPWAPLSSCPSQALQLAGCLSQLHSGLFLYQGLLQALEGISPELGPTLDTLQLDVADFATTIWQQMEELGMAPALQPTQGAMPAFASAFQRRAGGVLVASHLQSFLEVSYRVLRHLAQP
B2: interferon γ: commercially important polypeptide-based drug currently in use (protein, UniProt P01579 24-161, looked up)
Interferon gamma: QDPYVKEAENLKKYFNAGHSDVADNGTLFLGILKNWKEESDRKIMQSQIVSFYFKLFKNFKDDQSIQKSVETIKEDMNVKFFNSNKKKRDDFEKLTNYSVTDLNVQRKAIHELIQVMAELSPAAKTGKRKRSQMLFRG

details: unconjugated polypeptide drug, background statement

Compared with “Erythropoietin: commercially important polypeptide-based drug currently in use”, “granulocyte macrophage colony stimulating factor: commercially important polypeptide-based drug currently in use” is 1.5-fold lower in t1/2: 180 min for the first, 120 min for the second.

“human growth hormone: commercially important polypeptide-based drug currently in use” and relaxin are the same in t1/2: 30 min for the first, 30 min for the second.

streptokinase and “tissue plasminogen activator: commercially important polypeptide-based drug currently in use” are within 1.5-fold of each other in t1/2: 80 min for the first, 55 min for the second.

Going from tumor necrosis factor to urokinase, the t1/2 rises from 18 min to 50 min (2.8-fold).

Compared with B1, B2 is 4-fold lower in t1/2: 120 min for the first, 30 min for the second.
